Assay results taken from PMC3557383.

Target: T1, RepA (ORF3) (Moraxella bovis ATCC 10900 (plasmid pMbo4.6)) (UniProt D0V0D3)
T1 sequence: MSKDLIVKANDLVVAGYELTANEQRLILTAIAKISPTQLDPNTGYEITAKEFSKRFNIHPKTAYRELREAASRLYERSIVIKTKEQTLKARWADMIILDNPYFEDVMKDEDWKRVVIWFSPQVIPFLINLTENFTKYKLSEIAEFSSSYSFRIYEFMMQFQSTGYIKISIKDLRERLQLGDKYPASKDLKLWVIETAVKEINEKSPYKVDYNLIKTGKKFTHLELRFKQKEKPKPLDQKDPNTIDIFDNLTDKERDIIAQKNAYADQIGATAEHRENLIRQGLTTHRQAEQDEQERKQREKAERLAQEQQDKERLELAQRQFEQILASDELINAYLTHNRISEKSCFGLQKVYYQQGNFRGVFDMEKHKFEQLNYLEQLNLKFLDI
Assay: EMSA
Conditions: 10 mM Tris-HCl pH 7.5, 10 mM MgCl2, 100 mM NaCl, 0.2 mM DTT, 5% glycerol, 30 ul, 22 C 20 min; 6% PAGE 0.4x TBE at 4 C

Sequence | binding
AAGAATTCGGGCGTGGTTTTGGGGATTGATTTTGTTTTGTCTTTTTAGCTAAAAAAACAAGAAAATTAACAAGAAAAAGAGCCAAAACCGAGTGCTTTTTCGGTTTTGGCGTTTTTTTATTTTTTTAATATATTTTTAATAGTTTTTAGACCCCCTGCAAAGCCTTATGTATCAAAGGTTTGCG (double strand) [orirep32] | no binding
CTAGGAGGGATTGACTACCAAATAGGAGGGATTGACTACTCAAATAGGAGGGATTGACTACTCAAATAGGAGGGATTGACTACCAAATAGGAGTATTTACAATAACTCTTTTTAGGTGTATAATTAATTACTCCTTTTTTGCTAATGAGACCTAAAAATGAGCAAAGATTTAATTGTAGGATCCAA (double strand) [orirep15] | binds
